Results on four molecules are retold here after patent US20220089722A1 (NANTONG YICHEN BIOPHARMA, published 2022).

In assay [1] the target is T1, EGFR on F98-EGFR cells (UniProt P00533 25-1210, limits assumed). In words: cell-based or functional assay.
Assay [2] deals with T2, CD3 on T cells (Jurkat T cells; PBMC-T cells).
T2 construct: whole, on cells; the target is inferred from the anti-CD3 arm of the constructs
In words: flow cytometry on Jurkat T cells; protein purified on Protein A resin.

For assay [3], the target named is T1, EGFR on F98-EGFR cells. Description: flow cytometry on F98-EGFR cells; protein purified on CH1 resin.
In assay [4] the target is T2, CD3 on T cells (Jurkat T cells; PBMC-T …). In words: flow cytometry on Jurkat T cells; protein purified on CH1 resin.
For assay [5], the target named is T1, EGFR on F98-EGFR cells. Description: flow cytometry on F98-EGFR cells; protein purified on Protein A resin.
Assay [6] addresses T1, EGFR on F98-EGFR cells. Description: flow cytometry on F98-EGFR cells. The method, then:
F98-EGFR cells (a DMEM containing 10% FBS, 200 μg/ml G418) were cultured. 2×10⁵ cells were washed by precooled PBS for 3 times, and blocked by 2% FBS (soluble to PBS). IgFD-8, IgFD-9, IgFD-10, IgFD-11, IgFD-18, IgFD-19, IgFD-25, IgFD-26 or IgFD-31 (aEGFR expressed in a laboratory as a control) was added and incubated for 2 h at 4° C. (cells were gently mixed during incubation), unbounded antibodies were washed by 2% FBS (soluble to PBS), and then the remaining cells were incubated by FITC anti-human IgGFc(KPL, Inc., MD) for 1 h at 4° C., and washed by 2% FBS (soluble to PBS) for flow cytometry analysis. As shown in FIG. 7 and Table 4, the anti-CD3/anti-EGFR heterodimers in different forms of fusion could bind to EGFR on F98-EGFR cells, and there was no significant difference in the binding capacity of different heterodimers to F98-EGFR.

T2 sequence (P07766 23-207): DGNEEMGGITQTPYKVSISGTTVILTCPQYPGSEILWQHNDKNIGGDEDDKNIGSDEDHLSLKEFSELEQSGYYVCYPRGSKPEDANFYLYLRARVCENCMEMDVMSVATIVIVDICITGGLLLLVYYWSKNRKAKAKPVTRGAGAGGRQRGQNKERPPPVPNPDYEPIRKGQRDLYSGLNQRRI

B1: IgFD-29(anti-CD3/EGFR) (bispecific antibody, human IgG1, kappa)
chain 1: EVQLVESGGGLVQPGGSLRLSCAASGFTFNTYAMNWVRQAPGKGLEWVARIRSKYNNYATYYADSVKDRFTISRDDSKNTLYLQMNSLRAEDTAVYYCVRHGNFGNSYVSWFAYWGQGTLVTVSSASTKGPSVFPLAPSSKSTSGGTAALGCLVKDYFPEPVTVSWNSGALTSGVHTFPAVLQSSGLYSLSSVVTVPSSSLGTQTYICNVNHKPSNTKVDKKVEPKSCDKTHTCPPCPAPPVAGPSVFLFPPKPKDTLMISRTPEVTCVVVDVSHEDPEVKFNWYVDGVEVHNAKTKPREEQYNSTYRVVSVLTVLHQDWLNGKEYKCKVSNKGLPSSIEKTISKAKGQPREPQVYTLPPCRDELTKNQVSLWCLVKGFYPSDIAVEWESNGQPENNYKTTPPVLDSDGSFFLYSKLTVDKSRWQQGNVFSCSVMHEALHNHYTQKSLSLSPGKGGSGGSGGGGSGGGGSQVQLQESGPGLVKPSETLSLTCTVSGGSVSSGDYYWTWIRQSPGKGLEWIGHIYYSGNTNYNPSLKSRLTISIDTSKTQFSLKLSSVTAADTAIYYCVRDRVTGAFDIWGQGTMVTVSS
chain 2: QAVVTQEPSLTVSPGGTVTLTCRSSTGAVTTSNYANWVQQKPDHLFRGLIGGTNKRAPGTPARFSGSLLGDKAALTISGAQPEDEAEYYCALWYSNLWVFGGGTKLTVLKRTVAAPSVFIFPPSDEQLKSGTASVVCLLNNFYPREAKVQWKVDNALQSGNSQESVTEQDSKDSTYSLSSTLTLSKADYEKHKVYACEVTHQGLSSPVTKSFNRGECDKTHTCPPCPAPPVAGPSVFLFPPKPKDTLMISRTPEVTCVVVDVSHEDPEVKFNWYVDGVEVHNAKTKPREEQYNSTYRVVSVLTVLHQDWLNGKEYKCKVSNKGLPSSIEKTISKAKGQPREPQVCTLPPSRDELTKNQVSLSCAVKGFYPSDIAVEWESNGQPENNYKTTPPVLDSDGSFFLVSKLTVDKSRWQQGNVFSCSVMHEALHNHYTQKSLSLSPGKGGSGGSGGGGSGGGGSDIQMTQSPSSLSASVGDRVTITCQASQDISNYLNWYQQKPGKAPKLLIYDASNLETGVPSRFSGSGSGTDFTFTISSLQPEDIATYFCQHFDHLPLAFGGGTKVEIK
notes: (ProA)/(CH1) = purification resin; also called IgFD-29(ProA); IgFD-29(CH1)
Turning to B1, the “Promotion for the specific killing effect of PBMCs on target cells by heterodimers (EC50, pM); F98-EGFR cells, LDH assay; IgFD-29(CH1)” value with EGFR on F98-EGFR cells [1] was 338 pM. In addition, the “Promotion for the specific killing effect of PBMCs on target cells by heterodimers (EC50, pM); F98-EGFR cells, LDH assay; IgFD-29(ProA)” value with EGFR on F98-EGFR cells [1] stood at 293 pM. Moreover, the Kd in assay [2] turned out to be 7.42 nM; with EGFR on F98-EGFR cells [3], 78 nM; in assay [4], 6.82 nM; with EGFR on F98-EGFR cells [5] it was 77.5 nM.

B2: IgFD-32(anti-CD3/EGFR) (bispecific antibody, human IgG1, kappa, lambda)
chain 1: EVQLVESGGGLVQPGGSLRLSCAASGFTFNTYAMNWVRQAPGKGLEWVARIRSKYNNYATYYADSVKDRFTISRDDSKNTLYLQMNSLRAEDTAVYYCVRHGNFGNSYVSWFAYWGQGTLVTVSSASTKGPQVQLQESGPGLVKPSETLSLTCTVSGGSVSSGDYYWTWIRQSPGKGLEWIGHIYYSGNTNYNPSLKSRLTISIDTSKTQFSLKLSSVTAADTAIYYCVRDRVTGAFDIWGQGTMVTVSSASTKGPSVFPLAPSSKSTSGGTAALGCLVKDYFPEPVTVSWNSGALTSGVHTFPAVLQSSGLYSLSSVVTVPSSSLGTQTYICNVNHKPSNTKVDKKVEPKSCDKTHTCPPCPAPPVAGPSVFLFPPKPKDTLMISRTPEVTCVVVDVSHEDPEVKFNWYVDGVEVHNAKTKPREEQYNSTYRVVSVLTVLHQDWLNGKEYKCKVSNKGLPSSIEKTISKAKGQPREPQVYTLPPCRDELTKNQVSLWCLVKGFYPSDIAVEWESNGQPENNYKTTPPVLDSDGSFFLYSKLTVDKSRWQQGNVFSCSVMHEALHNHYTQKSLSLSPGK
chain 2: not shown
notes: (ProA)/(CH1) = purification resin; also called IgFD-32(ProA); IgFD-32(CH1)
For the molecule B2, the Kd in assay [2] is 7.13 nM; with EGFR on F98-EGFR cells [3], 12.8 nM; in assay [4] it was 8.45 nM; with EGFR on F98-EGFR cells [5] it was 19.6 nM.

B3: IgFD-33(anti-CD3/EGFR) (bispecific antibody, human IgG1, kappa)
chain 1: QVQLQESGPGLVKPSETLSLTCTVSGGSVSSGDYYWTWIRQSPGKGLEWIGHIYYSGNTNYNPSLKSRLTISIDTSKTQFSLKLSSVTAADTAIYYCVRDRVTGAFDIWGQGTMVTVSSASTKGPEVQLVESGGGLVQPGGSLRLSCAASGFTFNTYAMNWVRQAPGKGLEWVARIRSKYNNYATYYADSVKDRFTISRDDSKNTLYLQMNSLRAEDTAVYYCVRHGNFGNSYVSWFAYWGQGTLVTVSSASTKGPSVFPLAPSSKSTSGGTAALGCLVKDYFPEPVTVSWNSGALTSGVHTFPAVLQSSGLYSLSSVVTVPSSSLGTQTYICNVNHKPSNTKVDKKVEPKSCDKTHTCPPCPAPPVAGPSVFLFPPKPKDTLMISRTPEVTCVVVDVSHEDPEVKFNWYVDGVEVHNAKTKPREEQYNSTYRVVSVLTVLHQDWLNGKEYKCKVSNKGLPSSIEKTISKAKGQPREPQVYTLPPCRDELTKNQVSLWCLVKGFYPSDIAVEWESNGQPENNYKTTPPVLDSDGSFFLYSKLTVDKSRWQQGNVFSCSVMHEALHNHYTQKSLSLSPGK
chain 2: DIQMTQSPSSLSASVGDRVTITCQASQDISNYLNWYQQKPGKAPKLLIYDASNLETGVPSRFSGSGSGTDFTFTISSLQPEDIATYFCQHFDHLPLAFGGGTKVEIKTVAAPSVFIFPPQAVVTQEPSLTVSPGGTVTLTCRSSTGAVTTSNYANWVQQKPDHLFRGLIGGTNKRAPGTPARFSGSLLGDKAALTISGAQPEDEAEYYCALWYSNLWVFGGGTKLTVLKRTVAAPSVFIFPPSDEQLKSGTASVVCLLNNFYPREAKVQWKVDNALQSGNSQESVTEQDSKDSTYSLSSTLTLSKADYEKHKVYACEVTHQGLSSPVTKSFNRGECDKTHTCPPCPAPPVAGPSVFLFPPKPKDTLMISRTPEVTCVVVDVSHEDPEVKFNWYVDGVEVHNAKTKPREEQYNSTYRVVSVLTVLHQDWLNGKEYKCKVSNKGLPSSIEKTISKAKGQPREPQVCTLPPSRDELTKNQVSLSCAVKGFYPSDIAVEWESNGQPENNYKTTPPVLDSDGSFFLVSKLTVDKSRWQQGNVFSCSVMHEALHNHYTQKSLSLSPGK
notes: also called IgFD-33 (ProA)
Turning to B3, the Kd was 2.42 nM in the assay with EGFR on F98-EGFR cells [6] and 50.7 nM in assay [2].

B4: IgFD-28(anti-CD3/EGFR) (bispecific antibody, human IgG1, kappa)
chain 1: EVQLVESGGGLVQPGGSLRLSCAASGFTFNTYAMNWVRQAPGKGLEWVARIRSKYNNYATYYADSVKDRFTISRDDSKNTLYLQMNSLRAEDTAVYYCVRHGNFGNSYVSWFAYWGQGTLVTVSSASTKGPSVFPLAPSSKSTSGGTAALGCLVKDYFPEPVTVSWNSGALTSGVHTFPAVLQSSGLYSLSSVVTVPSSSLGTQTYICNVNHKPSNTKVDKKVEPKSCDKTHTCPPCPAPPVAGPSVFLFPPKPKDTLMISRTPEVTCVVVDVSHEDPEVKFNWYVDGVEVHNAKTKPREEQYNSTYRVVSVLTVLHQDWLNGKEYKCKVSNKGLPSSIEKTISKAKGQPREPQVYTLPPCRDELTKNQVSLWCLVKGFYPSDIAVEWESNGQPENNYKTTPPVLDSDGSFFLYSKLTVDKSRWQQGNVFSCSVMHEALHNHYTQKSLSLSPGK
chain 2: QAVVTQEPSLTVSPGGTVTLTCRSSTGAVTTSNYANWVQQKPDHLFRGLIGGTNKRAPGTPARFSGSLLGDKAALTISGAQPEDEAEYYCALWYSNLWVFGGGTKLEIKRTVAAPSVFIFPPSDEQLKSGTASVVCLLNNFYPREAKVQWKVDNALQSGNSQESVTEQDSKDSTYSLSSTLTLSKADYEKHKVYACEVTHQGLSSPVTKSFNRGECDKTHTCPPCPAPPVAGPSVFLFPPKPKDTLMISRTPEVTCVVVDVSHEDPEVKFNWYVDGVEVHNAKTKPREEQYNSTYRVVSVLTVLHQDWLNGKEYKCKVSNKGLPSSIEKTISKAKGQPREPQVCTLPPSRDELTKNQVSLSCAVKGFYPSDIAVEWESNGQPENNYKTTPPVLDSDGSFFLVSKLTVDKSRWQQGNVFSCSVMHEALHNHYTQKSLSLSPGKGGSGGSGGGGSGGGGSDIQMTQSPSSLSASVGDRVTITCQASQDISNYLNWYQQKPGKAPKLLIYDASNLETGVPSRFSGSGSGTDFTFTISSLQPEDIATYFCQHFDHLPLAFGGGTKVEIKGGGGSGGGGSGGGGSQVQLQESGPGLVKPSETLSLTCTVSGGSVSSGDYYWTWIRQSPGKGLEWIGHIYYSGNTNYNPSLKSRLTISIDTSKTQFSLKLSSVTAADTAIYYCVRDRVTGAFDIWGQGTMVTVSS
notes: also called IgFD-28(ProA); IgFD-28(CH1)
Consider B4, for which the “Promotion for the specific killing effect of PBMCs on target cells by heterodimers (EC50, pM); F98-EGFR cells, LDH assay; IgFD-28(CH1)” value with EGFR on F98-EGFR cells [1] was determined as 11.4 pM. Also, the “Promotion for the specific killing effect of PBMCs on target cells by heterodimers (EC50, pM); F98-EGFR cells, LDH assay; IgFD-28(ProA)” value in the assay with EGFR on F98-EGFR cells [1] stood at 14.7 pM. Further, the Kd in assay [2] turned out to be 12.2 nM; in the assay with EGFR on F98-EGFR cells [3] it was 2.86 nM; in assay [4], 10.4 nM; with EGFR on F98-EGFR cells [5] it was 3.81 nM.
